How the values were obtained:
[1] = target: T1, AIR-Dnmt3a2 (autoinhibition removed) (murine, UniProt O88508-2 1-689, Y303A;Y305A); assay: EMSA; 1 uM protein, 100 uM AdoHcy; no difference from 76Tf/95Bf-G4; 20 mM HEPES-NaOH pH 7.5, 100 mM KCl, 1 mM EDTA, 1 mM DTT, 100 uM AdoHcy, 25 C (EMSA: + 6% glycerol, 30 min, 60 nM DNA, gel at 4 C; FP: 10 nM DNA)
[2] = target: Dnmt3a-CD (murine, UniProt O88508 608-908); assay: EMSA; 1 uM protein, 100 uM AdoHcy; 20 mM HEPES-NaOH pH 7.5, 100 mM KCl, 1 mM EDTA, 1 mM DTT, 100 uM AdoHcy, 25 C (EMSA: + 6% glycerol, 30 min, 60 nM DNA, gel at 4 C; FP: 10 nM DNA); conditions: protein: recombinant; tags: N-terminal 6xHis; chain copies: 2; label: fluorophore (FAM or TAMRA); no G4
[3] = target: T1, AIR-Dnmt3a2 (autoinhibition removed); assay: as above
[4] = target: M.SssI (prokaryotic (species ), UniProt P15840 1-386); assay: EMSA; 100 uM AdoHcy; 20 mM HEPES-NaOH pH 7.5, 100 mM KCl, 1 mM EDTA, 1 mM DTT, 100 uM AdoHcy, 25 C (EMSA: + 6% glycerol, 30 min, 60 nM DNA, gel at 4 C; FP: 10 nM DNA); conditions: protein: recombinant; label: FAM; 30 bp duplex
Chain of M.SssI (P15840 whole entry): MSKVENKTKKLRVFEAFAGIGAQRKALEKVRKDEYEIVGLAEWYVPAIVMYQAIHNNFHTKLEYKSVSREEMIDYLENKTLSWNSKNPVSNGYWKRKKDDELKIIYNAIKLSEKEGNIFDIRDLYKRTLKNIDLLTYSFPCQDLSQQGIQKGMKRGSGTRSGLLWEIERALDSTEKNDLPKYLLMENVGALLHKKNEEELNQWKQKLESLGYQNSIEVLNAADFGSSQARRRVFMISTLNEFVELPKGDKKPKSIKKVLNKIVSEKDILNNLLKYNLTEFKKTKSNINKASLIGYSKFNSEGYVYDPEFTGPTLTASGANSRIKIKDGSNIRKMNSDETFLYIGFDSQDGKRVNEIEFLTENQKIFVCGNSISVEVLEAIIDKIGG

B1: 76Tf/76Bf (dsDNA)
DNA 1: TCCTTTCGCGCTTGGATCCTATGAGCGTTACTCGAGCATATGGCTCAGCTGCCAGGCACCAGTGTCAGCGTCCTAT
DNA 2: ATAGGACGCTGACACTGGTGCTTGGCAGCTGAGCCATATGCTCGAGTAACGCTCATAGGATCCAAGCGCGAAAGGA
**Q.** Does B1 bind [1]?
**A.** Result: binds

B2: 22(GAGT)4f (ssDNA)
DNA: AGGGAGTGAGTGAGTGAGTATA
**Q.** How did the binding signal [2] turn out when B2 was run?
**A.** The binding signal was roughly 4 fold weaker than 19G4f.

**Q.** What about the binding signal [3] of the same binder?
**A.** Its binding signal is roughly 4 fold weaker than 19G4f.

B3: 30Tf/30Bf (dsDNA)
DNA 1: CTGAATACTACTTGCGCTCTCTAACCTGAT
DNA 2: ATCAGGTTAGAGAGCGCAAGTAGTATTCAG
**Q.** Does B3 bind [4]?
**A.** Result: binds

From article PMC9499004, “Impact of G-Quadruplex Structures on Methylation of Model Substrates by DNA Methyltransferase Dnmt3a”
